Literature values in publication PMC3556358.

Target: insulin receptor (Homo sapiens) (UniProt P06213)
UniProt P06213, sequence (P06213 763-1382): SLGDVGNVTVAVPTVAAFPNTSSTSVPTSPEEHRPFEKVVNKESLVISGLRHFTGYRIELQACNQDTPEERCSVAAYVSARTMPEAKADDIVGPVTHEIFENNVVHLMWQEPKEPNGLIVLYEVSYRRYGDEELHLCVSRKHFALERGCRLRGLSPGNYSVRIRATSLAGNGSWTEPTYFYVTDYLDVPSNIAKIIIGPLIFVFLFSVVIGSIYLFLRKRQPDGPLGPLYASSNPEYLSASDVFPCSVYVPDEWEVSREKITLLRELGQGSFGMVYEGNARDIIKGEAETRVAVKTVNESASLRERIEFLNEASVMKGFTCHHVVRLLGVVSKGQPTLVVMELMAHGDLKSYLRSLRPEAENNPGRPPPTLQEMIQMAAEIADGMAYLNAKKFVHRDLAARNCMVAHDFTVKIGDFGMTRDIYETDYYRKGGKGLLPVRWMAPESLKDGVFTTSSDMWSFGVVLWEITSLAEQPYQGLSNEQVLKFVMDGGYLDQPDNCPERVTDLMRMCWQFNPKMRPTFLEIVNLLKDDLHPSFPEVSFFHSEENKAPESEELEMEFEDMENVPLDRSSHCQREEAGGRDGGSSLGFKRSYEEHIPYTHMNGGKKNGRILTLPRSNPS

insulin, sequence (P01308 90-110): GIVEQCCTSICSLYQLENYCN

**Q.** Which Kd does the source give for insulin (from UniProt P01308) here?
**A.** Its Kd is 0.3 nM.
